This note sets out measurements from the nanobody polyreactivity screen of Harvey et al. (2022).

The series can be described thus: yeast display, Sf9 membrane polyspecificity reagent, FACS + sequencing; frameworks hold sequencing errors. The procedure, abridged: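 Sorting gates, low and high (top ~1%), were placed on anti-HA fluorescence to track expression and on streptavidin fluorescence to track reagent binding. A clone's polyreactivity label is taken from the gate it came out of. The reagent was 10% biotinylated, detergent-solubilized Sf9 membrane, applied for 1 hour at 4 °C to galactose-induced yeast display cells.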
Regarding “QVQLVESGGALVQAGGSLRLSCAASGIIFRYNAMGWYRQAPGKDREVVAAISWSTGSTYYADSVKGRFTISRDNAKNTVYLQMNSLKPEDTAVYYCNAYWLRHIYNYWGQGSQVTVSS”, the “polyreactivity (PSR sort gate)” value is “high polyreactivity”.

With “QVQLVESGGALVQAGGSLRLSCAASGITFAYYAMGWYRQAPRKERELVASIRTGGSTYYADSVKGRFTISRDNAKNTVYLQMNSLKPEYTAVYYCARRYRTPYDYWGQGTQVTVSS”, the “polyreactivity (PSR sort gate)” value is listed as “high polyreactivity”.

Consider “QVQLVESGGALVQAGGSLRLSCAASGITFFTNAMGWYRQAPGKERELVAAISSGGRTYYADSVKGRFTISRDNAKNTVYLQMKSLKPEDTAVYYCAKRSYFYPDYYWGQGTQVTVSS”, for which the “polyreactivity (PSR sort gate)” value was “high polyreactivity”.

In the case of “QVQLVESGGALVQAGGSLRLSCAASGLIFYYYAMGWNRPAPGKERELVAAISGGGSTYYADSVKGRFTISRDNAKNTVYLQMNSLKPEDTAVYYCAASFRYPSWLYDYWGQGTQVTVSS”, the “polyreactivity (PSR sort gate)” value is on record as “low polyreactivity”.

Take “QVQLVESGGALVQAGGSLRLSCAASGRTFFGNAMGRYRQAPGKERELVAAISFSGGRTDYADSVKGRFTISRDNAKNTVFLQMNSLKPEDTAVYYCAARTYSAPRNRYYYWGQGTQVTVSS”: the “polyreactivity (PSR sort gate)” value is listed as “high polyreactivity”.

With “QVQLVESGGALVQAGGSLRLSCAASGRTFGRYAMGWYRQAPGKEREFVASISRRGGTTYYADSVKGRFTLSRDNAKNTVYLQMNSLKPEDTGVYYCAKEGSPTNPWYGSYEYDYWGQGTQVTVSS”, the “polyreactivity (PSR sort gate)” value is “low polyreactivity”.

With “QVQLVESGGALVQAGGSLRLSCAASGRTFLGYGMGWYRQAPGKERVLVAAITSGGGSTYYADSVKGRFTISRDNAKNPVYLQMNSLKPEDTAVYYCSAKYYRAYCPHSRTRGYWGQGTQVTVSS”, the “polyreactivity (PSR sort gate)” value was “high polyreactivity”.

For the sequence “QVQLVESGGALVQAGGSLRLSCAASGSIFCYYAMGWYRQAPGKERELVAVINSGGRTNYADSVKGRFTISRDNAKNTVYLQMNSLKPEDTEVYYCAAQGYFVDRAGRYYRGDYWGQGTQVTVSS”, the “polyreactivity (PSR sort gate)” value is “high polyreactivity”.

As for “QVQLVESGGALVQAGGSLRLSCAASGSIFVYNAMGWYIPAPGKERELVAAITSDGSTNYADSVKGRFTISRDNATNTVYLQMNSLKPEDNAVYYCNAGNDQYPSFEYDYWGQGTKVTVSS”, the “polyreactivity (PSR sort gate)” value is reported as “low polyreactivity”.

Consider “QVQLVESGGALVQAGGSLRLSCAASGSIIVYNDMRSSRQAPGKQRELVAAITSSGGSTYYADSVKGRFTISRDNAKNTVYLQMNSLKPEDTAVYYCNVWDRPLTGYDYRGQGTQVTVSS”, for which the “polyreactivity (PSR sort gate)” value is “low polyreactivity”.

Consider “QVQLVESGGALVQAGGSLRLSCAASGSTFRKYSMGWYRQAPGKERELVAVITKSGGSTYYADSVKGRFTISRDNAKNTVYLQMNSLKPEDTAVYYCAARRGGARHDYWGQGTQVTVSS”, for which the “polyreactivity (PSR sort gate)” value was “high polyreactivity”.

Turning to “QVQLVESGGALVQAGGSLRLSCAASGSTFYTYVMGWYRQAPGKQREVVADITWRGGSTYYADSENGRFTISRDNAKNTVYLLMNSLKPEDTPVYYCAALSGLLWYGRMYYWGQGTQVTVSS”, the “polyreactivity (PSR sort gate)” value is on record as “high polyreactivity”.

Regarding “QVQLVESGGALVQAGGSLRLSCAASRSIFWINAMGGYRQAPGTERELVADNDVSGGSTYYADTVKGRFTISRDNAKNTVYLKMNSLKPEDTEVYYCAADDYWAYLYYKTSEYDYWGQGTQVTVSS”, the “polyreactivity (PSR sort gate)” value is given as “low polyreactivity”.

Regarding “QVQLVESGGALVQAGGSLRLSCAASRSTSKNYAMGWYRQAPGKERELVAAITRGTSTNYADSVKGRFTISRDNAKNTVYFQMNSLKPEDSAVYYCNVERHRVWDYQWREEDDYWGQGTQVTVSS”, the “polyreactivity (PSR sort gate)” value is given as “low polyreactivity”.

“QVQLVESGGALVQAGGSLRLSCAPSGRIFDFKAIGWYRQAPGKEREFVAAITWGGGSTYYADSVKGRFSISRDNAKNSVYLPMNSLKPEVTAVYYCAADGWYYYQSWFNFGMDYWGQGTQVTVSS”: the “polyreactivity (PSR sort gate)” value is “low polyreactivity”.

Turning to “QVQLVESGGALVQAGGSLRLSCASSGFIFGVYDMGWYRQAPGKERELVAAIDSVGSTYYADSVKGRFTISRDNAKNTVYLQMNSLKPEDTAVYYCAKDGSYQAYGYWGQGTQVTVSS”, the “polyreactivity (PSR sort gate)” value was “low polyreactivity”.

For the sequence “QVQLVESGGALVQAGGSLSLSCAASGFIFQPYAMGWYRQAPGKERELVAAITSRGGRTYYADSVMGRFTISRDNAKNTVYLQMNSLKPEDSAVYYCNADIYASEYYYWGQGTQVTVSS”, the “polyreactivity (PSR sort gate)” value was “low polyreactivity”.

On to “QVQLVESGGALVQAGGSLSLSCAASGSIFVGNAMGWYRQAPGKERELVAAINGGGTNYADSVKGRFTFSRDNAKNTVYLQMNSLKPEDTAVYYCAAPVRSNDSAYLHRDNDYWGQGTQVTVSS”, for which the “polyreactivity (PSR sort gate)” value was “low polyreactivity”.

Take “QVQLVESGGALVQARGSLRLSSASSGSTFYPNAMGWYIQARGKEREFVAAISFSDGSTYYADSVKGRFTISRDNANNTVYLQMNSPKAEATAVYYCNKGASPDDYDYWGQGTQVTVSS”: the “polyreactivity (PSR sort gate)” value was “low polyreactivity”.

With “QVQLVESGGCLDQAGGSLRLSCAASGRIFNSNTMGWYRQAPGKERELVAAITYSGGSTYYADSVKGRFTISRDNAKNTVYLQMNSLKPEDTAVYYCAADFWEYDGPWYANDYYSWGQGTQVTVSS”, the “polyreactivity (PSR sort gate)” value is recorded as “low polyreactivity”.

Take “QVQLVESGGCLDQAGGSLRLSWDASGRTFDFNAIGWYRQAPGKERELVAAITHSAGRTYYADSVKGRFTLSRDIAKNTVYLQMNSLKREDTAVYYCATRYYNYARTSYGYWGQGTQVTVSS”: the “polyreactivity (PSR sort gate)” value is “high polyreactivity”.

“QVQLVESGGCLFQAGGSLRLSCAASGFNFPYYAMGWYRQAPGKERELVAAINRGGSTYYADSEKGRFTISRDNAKNTVYLQMNSLKPEDTAVFYCAAGYPSWYYGYPYDSWGQGTQVNVSS”: the “polyreactivity (PSR sort gate)” value is given as “low polyreactivity”.

For the sequence “QVQLVESGGCLVHAGGSLRLSCAASGRIFYTYAMGWYRQSPGNESELVAAISSRTVSTKYADSVKGRFTISRDNAKYTVYLQMNSLKPEDTAVYYCNVYSLRYGYDYCGQGTQVTVSS”, the “polyreactivity (PSR sort gate)” value was “high polyreactivity”.

Regarding “QVQLVESGGCLVKAGGSLRISCAASGFTFTKYAMGWYRPAPGKESELVAAINRSGRTYYADSVKGRFTISRDNAKNTVYLQMNSLKPEDTAVYDCAAYTRYQYRAYDYWGQGTQVTVSS”, the “polyreactivity (PSR sort gate)” value is listed as “high polyreactivity”.

Take “QVQLVESGGCLVQAGCSLRLSCAASGRTFRTYVMGWYRQAPGKEREFVAGITWSSGSTRYADSVKGRFTISRDNAKNTVYLQMNSLKPEDTAVYYCNATPFYLLYSHTYIQYEGDYWGQGTQVTVSS”: the “polyreactivity (PSR sort gate)” value is recorded as “high polyreactivity”.

Consider “QVQLVESGGCLVQAGGRLRLSCAASGFTFNAYSMGWYRQAPGKERELVAAINVSGGITYYADSVKGRFTISRDNAKNTVYLQMNSLKPEDTAVYYCARDIRQYILYGRGDYWGQGTQVTVSS”, for which the “polyreactivity (PSR sort gate)” value is on record as “low polyreactivity”.

“QVQLVESGGCLVQAGGSHRLSCAASGSIFYIYAMGWYRQAPGKERELVASITFSGDITYYAYSVKGRFTISRDNAKNTFYLHMNSLKPEDTAVYYCAADYHEQSYAVTYDYWGQGTQVTVSS”: the “polyreactivity (PSR sort gate)” value is on record as “low polyreactivity”.

With “QVQLVESGGCLVQAGGSIRLSCAAYGSNFDNAMGWSRPATGKERELGAAITSGGITNYADSVKGRFTISRDNAKNTVYLQMNSLKPEDTAVYYCNTLSPTQTKFDYWGQGTQVTVTS”, the “polyreactivity (PSR sort gate)” value is listed as “low polyreactivity”.

With “QVQLVESGGCLVQAGGSLRFSCAASGLTFGRNAMGWYRQAPGTERELVAAISRSGGRTSYADSVKGRFTMSRDNAKNTVYLQMNSLKPEETAVYYCAARSDVYTHDYWGQGTQVTVSS”, the “polyreactivity (PSR sort gate)” value is “high polyreactivity”.

“QVQLVESGGCLVQAGGSLRLICASSGFTFRAYAMGWYIKAPGKEREFVAAISRRGGSTSYADSVKGRFTISRDNAKNTVYLQMNSLKPEDTAVYYCAATYQILTTSAHDSWGQGTQVTVSS”: the “polyreactivity (PSR sort gate)” value is recorded as “high polyreactivity”.
